The values below are quoted from earlier work in PMC7246992.

Data set [1] concerns the target linear ubiquitin (Homo sapiens) (UniProt P0CG48).
Data set [2] has the same target. The source holds these as a separate data set.

Where two headings read alike, the source gives them in different places.

optineurin UBAN, sequence (Q96CV9 416-510): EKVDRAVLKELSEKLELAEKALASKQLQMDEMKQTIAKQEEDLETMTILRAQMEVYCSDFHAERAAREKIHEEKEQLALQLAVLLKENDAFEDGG
A20 ZF7, sequence (P21580 756-790): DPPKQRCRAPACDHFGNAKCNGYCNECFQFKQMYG

With A20 ZF7 (from UniProt P21580), the Kd (as a rule, a measure of binding affinity in units of concentration) in data set [1] is 9 µM.

As to optineurin UBAN (from UniProt Q96CV9), the Kd in data set [2] is 1 µM.
